# Patent US20210285949A1 (SPHINGOTEC, published 2021)
# Like-named read-outs stand apart in the source and are kept apart here. No end group written: not given here.
# What was measured:
# [1] = biological target: T1, human recombinant adrenomedullin receptor (CRLR+RAMP3) (human); test: cell-based or functional assay
# [2] = biological target: T1, human recombinant adrenomedullin …; test: cell-based or functional assay; remark: listed apart in the source
# T1 sequence (Q16602 whole entry, chain 1 of 2): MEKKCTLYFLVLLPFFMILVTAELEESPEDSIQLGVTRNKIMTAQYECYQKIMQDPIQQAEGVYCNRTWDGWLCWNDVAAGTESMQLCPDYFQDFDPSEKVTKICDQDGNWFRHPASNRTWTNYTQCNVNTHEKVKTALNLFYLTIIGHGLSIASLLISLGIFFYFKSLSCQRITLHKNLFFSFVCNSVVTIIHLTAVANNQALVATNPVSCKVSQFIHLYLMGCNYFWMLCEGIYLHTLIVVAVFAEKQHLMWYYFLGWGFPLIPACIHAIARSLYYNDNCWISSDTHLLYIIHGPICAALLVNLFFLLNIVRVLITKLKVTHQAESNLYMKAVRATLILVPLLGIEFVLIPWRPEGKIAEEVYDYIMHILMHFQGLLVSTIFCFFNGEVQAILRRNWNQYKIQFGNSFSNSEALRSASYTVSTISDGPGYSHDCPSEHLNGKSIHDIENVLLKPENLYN
# T1 sequence (O60896 whole entry, chain 2 of 2, further chain): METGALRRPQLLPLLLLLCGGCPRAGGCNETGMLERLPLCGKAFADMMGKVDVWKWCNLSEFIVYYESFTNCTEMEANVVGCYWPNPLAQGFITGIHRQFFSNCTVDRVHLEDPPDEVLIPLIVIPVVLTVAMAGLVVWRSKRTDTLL
"EC50 (read off the curve); cAMP HTRF assay, CHO-K1 cells with human CRLR+RAMP3 [1] [nM]","EC50 (read off the curve); cAMP HTRF assay, CHO-K1 cells with human CRLR+RAMP3 [2] [nM]",Binder
~1,–,mature human Adrenomedullin (Human ADM 1-52) (ends and bridges not checked) peptide: YRQSMNNFQGLRSFGCRFGTCTVQKLAHQIYQFTDKDKDNVAPRSKISPQGY-NH2
–,~0.08,YRQSMNQGSRSNGCRFGTCTFQKLAHQIYQLTDKDKDGMAPRNKISPQGY-NH2 (ends and bridges not checked) [Mouse ADM 1-50]
